Data reported in patent US6391305B1, “Conjugates useful in the treatment of prostate cancer” (priority 1999, dated 2002).
Values joined by “and” are separate entries in the source; they are usually repeats but may differ in a detail not shown here. Identical values can stand only once. Marks after values point to notes of the source that are not given here. Non-standard residues stand in square brackets, D forms with d. Residues, ends and D or L forms follow the SMILES beside them. Primed or numbered codes have the meaning given here. No end group written: not given here. *: point of attachment. PEG(1) = polyethylene glycol containing substituent with 1 ethyleneoxy subunit; X5 = (2R,3S)‑2,3,4‑trihydroxybutanoyl, O=C([C@H](O)[C@@H](O)CO)*; Decanoyl(3,6,9-trioxa) = COCCOCCOCC(=O)*; Glyceroyl(2S) = O=C([C@@H](O)CO)*; hArg = N=C(N)NCCCC[C@H](N)C(=O)O; 3Pal = N[C@@H](Cc1cccnc1)C(=O)O; Cha = N[C@@H](CC1CCCCC1)C(=O)O; Chg = N[C@H](C(=O)O)C1CCCCC1; Nle = CCCC[C@H](N)C(=O)O; PEG(15) = PEG(15): -; PEG(16) = PEG(16): -; PEG(17) = PEG(17): -; Glycolyl = O=C(CO)*

Target: T1, enzymatically active free PSA (Homo sapiens, UniProt P07288)
T1 construct: required for 50% cleavage of the noted oligopeptides with enzymatically active free PSA
T1 sequence (P07288 25-261): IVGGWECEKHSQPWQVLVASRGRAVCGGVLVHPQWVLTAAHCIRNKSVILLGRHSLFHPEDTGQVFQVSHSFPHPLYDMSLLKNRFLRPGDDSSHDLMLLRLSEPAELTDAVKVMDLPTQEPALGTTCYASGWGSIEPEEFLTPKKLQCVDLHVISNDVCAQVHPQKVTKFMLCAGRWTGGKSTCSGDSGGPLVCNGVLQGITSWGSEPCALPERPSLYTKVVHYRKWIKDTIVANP
Format: biochemical
Settings: oligopeptide; 4 hours
Experimental: All other oligopeptides were tested as neutral compounds.

Row | Compound | Substrate cleavage by York PSA at 4 HOUR
1 | ShRChgQ-SL-acid: oligopeptide without N-terminal blocking group, Example 1 (S[hArg][Chg]QSL-OH) | 4 HOUR = 8%

Same assay, conditions: oligopeptide; PSA digestion buffer pH8.0; molar ratio to PSA 100 to 1

Row | Compound | Time to 50% Substrate Cleavage by York PSA
2 | 2-hydroxyacetyl-hRASChgQ-SL-acid: blocked oligopeptide with PSA cleavage site, Example 1 (Glycolyl-[hArg]AS[Chg]QSL-OH; SMILES CC(C)C[C@H](NC(=O)[C@H](CO)NC(=O)[C@H](CCC(N)=O)NC(=O)[C@@H](NC(=O)[C@H](CO)NC(=O)[C@H](C)NC(=O)[C@H](CCCCNC(=N)N)NC(=O)CO)C1CCCCC1)C(=O)O) | 70 min
3 | (l)2,3-dihydroxypropionyl-SSChgQ-SL-acid: blocked oligopeptide with PSA cleavage site, Example 1 ({Glyceroyl(2S)}-SS[Chg]QSL-OH) | 180 min
4 | (2R,3S) 2,3,4-trihydroxybutanoyl-ShRChgQ-SL-acid: blocked oligopeptide with PSA cleavage site, Example 1 (X5-S[hArg][Chg]QSL-OH) | 90 min
5 | PEG(18)ShRYQ-SL-acid: blocked oligopeptide with PSA cleavage site, Example 1 ({PEG(18)}-S[hArg]YQSL-OH) | 40 min
6 | 2,3-dihydroxypropionyl-hRSSChgQ-SL-acid: blocked oligopeptide with PSA cleavage site, Example 1 | 50 min
7 | (l)2,3-dihydroxypropionyl-3PAL-SSChgQ-SL-acid: blocked oligopeptide with PSA cleavage site, Example 1 ({Glyceroyl(2S)}-[3Pal]SS[Chg]QSL-OH; SMILES CC(C)C[C@H](NC(=O)[C@H](CO)NC(=O)[C@H](CCC(N)=O)NC(=O)[C@@H](NC(=O)[C@H](CO)NC(=O)[C@H](CO)NC(=O)[C@H](Cc1cccnc1)NC(=O)[C@@H](O)CO)C1CCCCC1)C(=O)O) | 70 min
8 | PEG(17)-ShRYQ-SL-acid: blocked oligopeptide with PSA cleavage site, Example 1 ({PEG(17)}-S[hArg]YQSL-OH) | 55 min
9 | PEG(15)-ShRYQ-SL-acid: blocked oligopeptide with PSA cleavage site, Example 1 ({PEG(15)}-S[hArg]YQSL-OH) | 40 min
10 | PEG(19)ShRYQ-SL-acid: blocked oligopeptide with PSA cleavage site, Example 1 ({PEG(19)}-S[hArg]YQSL-OH) | 60 min
11 | AchRSSChgQ-SL-acid: blocked oligopeptide with PSA cleavage site, Example 1 (Ac-[hArg]SS[Chg]QSL-OH) | 120 min
12 | PEG(2)SSSChgQ-SL-acid: blocked oligopeptide with PSA cleavage site, Example 1 ({Decanoyl(3,6,9-trioxa)}-SSS[Chg]QSL-OH) | 150 min
13 | PEG(1)-hRSSChgQ-SL-acid: blocked oligopeptide with PSA cleavage site, Example 1 ({PEG(1)}-[hArg]SS[Chg]QSL-OH) | 30 min
14 | 2-hydroxyacetyl-ShRChgQ-SL-acid: blocked oligopeptide with PSA cleavage site, Example 1 (Glycolyl-S[hArg][Chg]QSL-OH) | 120 min
15 | PEG(1)-ShRYQ-SL-acid: blocked oligopeptide with PSA cleavage site, Example 1 ({PEG(1)}-S[hArg]YQSL-OH) | 90 min
16 | 2,3-dihydroxypropionyl-ShRYQ-SL-acid: blocked oligopeptide with PSA cleavage site, Example 1 ({2,3‑dihydroxypropionyl}-S[hArg]YQSL-OH) | 35 min and 50 min
17 | PEG(16)-ShRYQ-SL-acid: blocked oligopeptide with PSA cleavage site, Example 1 ({PEG(16)}-S[hArg]YQSL-OH) | 40 min
18 | PEG(2)-S-hRChgQ-SL-acid: blocked oligopeptide with PSA cleavage site, Example 1 ({Decanoyl(3,6,9-trioxa)}-S[hArg][Chg]QSL-OH) | 30 min
19 | 2,3-dihydroxypropionyl-ShRChgQ-SL-acid: blocked oligopeptide with PSA cleavage site, Example 1 ({2,3‑dihydroxypropionyl}-S[hArg][Chg]QSL-OH) | 75 min
20 | PEG(14)ShRYQ-SL-acid: blocked oligopeptide with PSA cleavage site, Example 1 ({PEG(14)}-S[hArg]YQSL-OH) | 40 min
21 | PEG(2)-3PAL-SSChgQ-SL-acid: blocked oligopeptide with PSA cleavage site, Example 1 ({Decanoyl(3,6,9-trioxa)}-[3Pal]SS[Chg]QSL-OH; SMILES COCCOCCOCC(=O)N[C@@H](Cc1cccnc1)C(=O)N[C@@H](CO)C(=O)N[C@@H](CO)C(=O)N[C@H](C(=O)N[C@@H](CCC(N)=O)C(=O)N[C@@H](CO)C(=O)N[C@@H](CC(C)C)C(=O)O)C1CCCCC1) | 80 min
22 | 2-hydroxyacetyl-hRSSYQ-SNle-acid: blocked oligopeptide with PSA cleavage site, Example 1 (Glycolyl-[hArg]SSYQS[Nle]-OH) | 45 min
23 | Ac-ANKASYQ-SL-acid: blocked oligopeptide with PSA cleavage site, Example 1 (chain 1 Ac-ANKASYQSL-OH; chain 2 Ac-ANKASYQSL-OH) | 135 min and 220 min
24 | 2,3-dihydroxypropionyl-hSSSChgQ-SL-acid: blocked oligopeptide with PSA cleavage site, Example 1 ({2,3‑dihydroxypropionyl}-[hS]SS[Chg]QSL-OH) | 160 min
25 | 2,3-dihydroxypropionyl-SSSChgQ-SL-acid: blocked oligopeptide with PSA cleavage site, Example 1 ({2,3‑dihydroxypropionyl}-SSS[Chg]QSL-OH) | 120 min
26 | 2-hydroxyacetyl-SSChgQ-SL-acid: blocked oligopeptide with PSA cleavage site, Example 1 (Glycolyl-SS[Chg]QSL-OH) | 180 min
27 | (l)2,3-dihydroxypropionyl-SSSChgQ-SL-acid: blocked oligopeptide with PSA cleavage site, Example 1 ({Glyceroyl(2S)}-SSS[Chg]QSL-OH) | 80 min and 110 min
28 | 2,3-dihydroxypropionyl-GSSChgQ-SL-acid: blocked oligopeptide with PSA cleavage site, Example 1 ({2,3‑dihydroxypropionyl}-GSS[Chg]QSL-OH) | 160 min

Same assay, conditions: oligopeptide; asterisk not explained in Table 2

Row | Compound | Time to 50% Substrate Cleavage by York PSA (Min), values marked *
29 | PEG(2)-ShRYQ-SL-acid: blocked oligopeptide with PSA cleavage site, Example 1 ({Decanoyl(3,6,9-trioxa)}-S[hArg]YQSL-OH) | 35* Min
30 | PEG(2)-hRSSChgQ-SL-acid: blocked oligopeptide with PSA cleavage site, Example 1 ({Decanoyl(3,6,9-trioxa)}-[hArg]SS[Chg]QSL-OH) | 40* Min
31 | 2(S)2,3-dihydroxypropionyl-hRSSChgQ-SL-acid: blocked oligopeptide with PSA cleavage site, Example 1 ({2(S)‑2,3‑dihydroxypropionyl}-[hArg]SS[Chg]QSL-OH) | 25* Min
32 | AchRSSChgQ-SL-acid: blocked oligopeptide with PSA cleavage site, Example 1 (Ac-[hArg]SS[Chg]QSL-OH) | 45 min
33 | 2-hydroxyacetyl-ShRChgQ-SL-acid: blocked oligopeptide with PSA cleavage site, Example 1 (Glycolyl-S[hArg][Chg]QSL-OH) | 30 min
34 | 2(S)-2,3-dihydroxy-propionyl ShRChgQSL-acid: blocked oligopeptide with PSA cleavage site, Example 1 ({2(S)‑2,3‑dihydroxypropionyl}-S[hArg][Chg]QSL-OH) | 35* Min
35 | 2-hydroxyacetylhRYQ-SL-acid: blocked oligopeptide with PSA cleavage site, Example 1 (Glycolyl-[hArg]YQSL-OH; SMILES CC(C)C[C@H](NC(=O)[C@H](CO)NC(=O)[C@H](CCC(N)=O)NC(=O)[C@H](Cc1ccc(O)cc1)NC(=O)[C@H](CCCCNC(=N)N)NC(=O)CO)C(=O)O) | 105* Min
36 | PEG(1)-ShRChgQ-SL-acid: blocked oligopeptide with PSA cleavage site, Example 1 ({PEG(1)}-S[hArg][Chg]QSL-OH) | 120* Min

Same assay, conditions: psa digestion buffer, pH 8

Row | Compound | Time to 50% Substrate Cleavage by York PSA
37 | CCCC[C@H](NC(=O)[C@H](CO)NC(=O)[C@H](CCC(N)=O)NC(=O)[C@H](Cc1ccc(O)cc1)NC(=O)[C@H](CO)NC(=O)[C@H](CO)NC(=O)[C@H](CCCCNC(=N)N)NC(C)=O)C(=O)O [Ac-hRSSYQ-SNle-acid] (Ac-[hArg]SSYQS[Nle]-OH) | 25 min
38 | CC(C)C[C@H](NC(=O)[C@H](CO)NC(=O)[C@H](CCC(N)=O)NC(=O)[C@H](Cc1ccc(O)cc1)NC(=O)[C@H](CO)NC(=O)[C@H](CO)NC(=O)[C@H](CCCCNC(=N)N)NC(=O)CO)C(=O)O [2-hydroxyacetyl-hRSSYQ-SL-acid] (Glycolyl-[hArg]SSYQSL-OH) | 35 min
39 | CCCC[C@H](NC(=O)[C@H](CO)NC(=O)[C@H](CCC(N)=O)NC(=O)[C@H](CC1CCCCC1)NC(=O)[C@H](CCCCNC(=N)N)NC(C)=O)C(=O)O [Ac-hR(CHA)Q-SNle-acid] (Ac-[hArg][Cha]QS[Nle]-OH) | 200 min
40 | CCCC[C@H](NC(=O)[C@H](CO)NC(=O)[C@H](CCC(N)=O)NC(=O)[C@H](Cc1ccc(O)cc1)NC(=O)[C@H](CCCCNC(=N)N)NC(=O)[C@H](CO)NC(C)=O)C(=O)O [Ac-ShRYQ-SNle-acid] (Ac-S[hArg]YQS[Nle]-OH) | 25 min
